Data: the Immune Epitope Database (IEDB)

What was measured:
[1] = molecular target: HLA-A*02:01; experiment: IEDB peptide-MHC binding, purified MHC/competitive/radioactivity; ≥ and ≤ were set here for values at or beyond the usual limits of such assays; conditions: source organism: Hepatitis B virus
[2] = molecular target: HLA-A*01:01; experiment: IEDB peptide-MHC binding, purified MHC/direct/fluorescence; filed as Kd, often an IC50 or EC50 that approximates it; ≥ and ≤ were set here for values at or beyond the usual limits of such assays; conditions: source organism: Influenza A virus (A/swine/Miyagi/5/2003(H1N2))
[3] = molecular target: HLA-A*02:01; experiment: as above; conditions: source organism: Influenza A virus (A/swine/Miyagi/5/2003(H1N2))
[4] = molecular target: HLA-A*03:01; experiment: as above; conditions: source organism: Influenza A virus (A/swine/Miyagi/5/2003(H1N2))
[5] = molecular target: HLA-A*26:01; experiment: as above; conditions: source organism: Influenza A virus(A/swine/Shandong/fZC/2003(H9N2))
[6] = molecular target: HLA-A*31:01; experiment: as above; conditions: source organism: Influenza A virus (A/swine/Miyagi/5/2003(H1N2))
[7] = molecular target: HLA-A*69:01; experiment: as above; conditions: source organism: Influenza A virus (A/swine/Miyagi/5/2003(H1N2))
[8] = molecular target: HLA-B*08:01; experiment: as above; conditions: source organism: Influenza A virus(A/swine/Shandong/fZC/2003(H9N2))
[9] = molecular target: HLA-B*08:02; experiment: as above; conditions: source organism: Influenza A virus(A/swine/Shandong/fZC/2003(H9N2))
[10] = molecular target: HLA-B*15:09; experiment: as above; conditions: source organism: Influenza A virus(A/swine/Shandong/fZC/2003(H9N2))
[11] = molecular target: HLA-B*15:17; experiment: as above; conditions: source organism: Influenza A virus (A/swine/Miyagi/5/2003(H1N2))
[12] = molecular target: HLA-B*27:05; experiment: as above; conditions: source organism: Influenza A virus (A/swine/Miyagi/5/2003(H1N2))
[13] = molecular target: HLA-B*38:01; experiment: as above; conditions: source organism: Influenza A virus(A/swine/Shandong/fZC/2003(H9N2))
[14] = molecular target: HLA-B*39:01; experiment: as above; conditions: source organism: Influenza A virus(A/swine/Shandong/fZC/2003(H9N2))
[15] = molecular target: HLA-B*40:01; experiment: as above; conditions: source organism: Influenza A virus (A/swine/Miyagi/5/2003(H1N2))
[16] = molecular target: HLA-B*46:01; experiment: as above; conditions: source organism: Influenza A virus (A/swine/Miyagi/5/2003(H1N2))
[17] = molecular target: HLA-B*48:01; experiment: as above; conditions: source organism: Influenza A virus (A/swine/Miyagi/5/2003(H1N2))
[18] = molecular target: HLA-B*57:01; experiment: as above; conditions: source organism: Influenza A virus (A/swine/Miyagi/5/2003(H1N2))
[19] = molecular target: HLA-B*58:01; experiment: as above; conditions: source organism: Influenza A virus (A/swine/Miyagi/5/2003(H1N2))
[20] = molecular target: HLA-A*11:01; experiment: IEDB peptide-MHC binding, purified MHC/competitive/fluorescence; filed as Kd, often an IC50 or EC50 that approximates it; ≥ and ≤ were set here for values at or beyond the usual limits of such assays; conditions: source organism: Influenza A virus (A/duck/Hong Kong/3096/99(H6N2))
[21] = molecular target: HLA-B*15:01; experiment: as above; conditions: source organism: Influenza A virus (A/duck/Hong Kong/3096/99(H6N2))

FLPADFFPSI
0.016 µM: IC50 [1]

GTEKLTITY
0.0083 µM: Kd [2]
0.0065 µM: Kd [11]
≥ 20 µM: Kd [3] | Kd [4] | Kd [5] | Kd [6] | Kd [7] | Kd [8] | Kd [9] | Kd [10] | Kd [12] | Kd [13] | Kd [14] | Kd [15] | Kd [16] | Kd [17] | Kd [18] | Kd [19] | Kd [20] | Kd [21]
